Source: patent US20040213780A1 (GENERAL HOSPITAL, published 2004)

Molecular target: T1, mutant full-length huntingtin with 75 glutamines (HttQ75) (UniProt P42858 1-3142)
T1 construct: domain: full-length; In the yeast two-hybrid assay expressed as prey fusion from vector pJG4-5 (hemagglutinin tag); also called mutant huntingtin
Test: yeast two-hybrid, huntingtin prey against TAFII130 bait
Procedure: All the constructs were verified by DNA sequencing for correct reading frame and orientation. All assays were performed in triplicates and protein expression verified by Western blotting using standard procedures. The ability of the LexA fusion to bind operator was confirmed by a repression assay. The two-hybrid screen assays were performed as described (D. Krainc et al., J. Biol. Chem. 273:26218, 1998).
Because NH₂-terminal fragments of mutant huntingtin can effectively induce cell death in both in vivo and in vitro models (L. Mangiarini, et al., Cell 87:493, 1996; J. K. Copper, et al., Hum. Mol. Genet. 7:783, 1998; D. Martindale, et al., Nature Genet. 18:150, 1998; S. H. Li and X. Y. Li, Hum. Mol. Genet. 7:777, 1998), we examined the interactions of Sp1 and TAFII130 with the 480-amino acid NH₂-terminal fragment of huntingtin. […] FIG. 1 illustrates that Huntingtin interacted with Sp1 and TAFII130 in vitro and in human HD brain tissue. FIG. 1A illustrates results of yeast two-hybrid experiments, as described above herein, performed with full-length (HttQ17 and HttQ75) or truncated huntingtin constructs (Htt480Q17 and Htt480Q68) as prey against bait plasmids containing full-length Sp1 or Sp1 lacking the DNA binding domain (Sp1AB, amino acids 83 through 621).

T1 sequence (P42858 other isoform, or with tags, fused parts or gaps mutant limits assumed): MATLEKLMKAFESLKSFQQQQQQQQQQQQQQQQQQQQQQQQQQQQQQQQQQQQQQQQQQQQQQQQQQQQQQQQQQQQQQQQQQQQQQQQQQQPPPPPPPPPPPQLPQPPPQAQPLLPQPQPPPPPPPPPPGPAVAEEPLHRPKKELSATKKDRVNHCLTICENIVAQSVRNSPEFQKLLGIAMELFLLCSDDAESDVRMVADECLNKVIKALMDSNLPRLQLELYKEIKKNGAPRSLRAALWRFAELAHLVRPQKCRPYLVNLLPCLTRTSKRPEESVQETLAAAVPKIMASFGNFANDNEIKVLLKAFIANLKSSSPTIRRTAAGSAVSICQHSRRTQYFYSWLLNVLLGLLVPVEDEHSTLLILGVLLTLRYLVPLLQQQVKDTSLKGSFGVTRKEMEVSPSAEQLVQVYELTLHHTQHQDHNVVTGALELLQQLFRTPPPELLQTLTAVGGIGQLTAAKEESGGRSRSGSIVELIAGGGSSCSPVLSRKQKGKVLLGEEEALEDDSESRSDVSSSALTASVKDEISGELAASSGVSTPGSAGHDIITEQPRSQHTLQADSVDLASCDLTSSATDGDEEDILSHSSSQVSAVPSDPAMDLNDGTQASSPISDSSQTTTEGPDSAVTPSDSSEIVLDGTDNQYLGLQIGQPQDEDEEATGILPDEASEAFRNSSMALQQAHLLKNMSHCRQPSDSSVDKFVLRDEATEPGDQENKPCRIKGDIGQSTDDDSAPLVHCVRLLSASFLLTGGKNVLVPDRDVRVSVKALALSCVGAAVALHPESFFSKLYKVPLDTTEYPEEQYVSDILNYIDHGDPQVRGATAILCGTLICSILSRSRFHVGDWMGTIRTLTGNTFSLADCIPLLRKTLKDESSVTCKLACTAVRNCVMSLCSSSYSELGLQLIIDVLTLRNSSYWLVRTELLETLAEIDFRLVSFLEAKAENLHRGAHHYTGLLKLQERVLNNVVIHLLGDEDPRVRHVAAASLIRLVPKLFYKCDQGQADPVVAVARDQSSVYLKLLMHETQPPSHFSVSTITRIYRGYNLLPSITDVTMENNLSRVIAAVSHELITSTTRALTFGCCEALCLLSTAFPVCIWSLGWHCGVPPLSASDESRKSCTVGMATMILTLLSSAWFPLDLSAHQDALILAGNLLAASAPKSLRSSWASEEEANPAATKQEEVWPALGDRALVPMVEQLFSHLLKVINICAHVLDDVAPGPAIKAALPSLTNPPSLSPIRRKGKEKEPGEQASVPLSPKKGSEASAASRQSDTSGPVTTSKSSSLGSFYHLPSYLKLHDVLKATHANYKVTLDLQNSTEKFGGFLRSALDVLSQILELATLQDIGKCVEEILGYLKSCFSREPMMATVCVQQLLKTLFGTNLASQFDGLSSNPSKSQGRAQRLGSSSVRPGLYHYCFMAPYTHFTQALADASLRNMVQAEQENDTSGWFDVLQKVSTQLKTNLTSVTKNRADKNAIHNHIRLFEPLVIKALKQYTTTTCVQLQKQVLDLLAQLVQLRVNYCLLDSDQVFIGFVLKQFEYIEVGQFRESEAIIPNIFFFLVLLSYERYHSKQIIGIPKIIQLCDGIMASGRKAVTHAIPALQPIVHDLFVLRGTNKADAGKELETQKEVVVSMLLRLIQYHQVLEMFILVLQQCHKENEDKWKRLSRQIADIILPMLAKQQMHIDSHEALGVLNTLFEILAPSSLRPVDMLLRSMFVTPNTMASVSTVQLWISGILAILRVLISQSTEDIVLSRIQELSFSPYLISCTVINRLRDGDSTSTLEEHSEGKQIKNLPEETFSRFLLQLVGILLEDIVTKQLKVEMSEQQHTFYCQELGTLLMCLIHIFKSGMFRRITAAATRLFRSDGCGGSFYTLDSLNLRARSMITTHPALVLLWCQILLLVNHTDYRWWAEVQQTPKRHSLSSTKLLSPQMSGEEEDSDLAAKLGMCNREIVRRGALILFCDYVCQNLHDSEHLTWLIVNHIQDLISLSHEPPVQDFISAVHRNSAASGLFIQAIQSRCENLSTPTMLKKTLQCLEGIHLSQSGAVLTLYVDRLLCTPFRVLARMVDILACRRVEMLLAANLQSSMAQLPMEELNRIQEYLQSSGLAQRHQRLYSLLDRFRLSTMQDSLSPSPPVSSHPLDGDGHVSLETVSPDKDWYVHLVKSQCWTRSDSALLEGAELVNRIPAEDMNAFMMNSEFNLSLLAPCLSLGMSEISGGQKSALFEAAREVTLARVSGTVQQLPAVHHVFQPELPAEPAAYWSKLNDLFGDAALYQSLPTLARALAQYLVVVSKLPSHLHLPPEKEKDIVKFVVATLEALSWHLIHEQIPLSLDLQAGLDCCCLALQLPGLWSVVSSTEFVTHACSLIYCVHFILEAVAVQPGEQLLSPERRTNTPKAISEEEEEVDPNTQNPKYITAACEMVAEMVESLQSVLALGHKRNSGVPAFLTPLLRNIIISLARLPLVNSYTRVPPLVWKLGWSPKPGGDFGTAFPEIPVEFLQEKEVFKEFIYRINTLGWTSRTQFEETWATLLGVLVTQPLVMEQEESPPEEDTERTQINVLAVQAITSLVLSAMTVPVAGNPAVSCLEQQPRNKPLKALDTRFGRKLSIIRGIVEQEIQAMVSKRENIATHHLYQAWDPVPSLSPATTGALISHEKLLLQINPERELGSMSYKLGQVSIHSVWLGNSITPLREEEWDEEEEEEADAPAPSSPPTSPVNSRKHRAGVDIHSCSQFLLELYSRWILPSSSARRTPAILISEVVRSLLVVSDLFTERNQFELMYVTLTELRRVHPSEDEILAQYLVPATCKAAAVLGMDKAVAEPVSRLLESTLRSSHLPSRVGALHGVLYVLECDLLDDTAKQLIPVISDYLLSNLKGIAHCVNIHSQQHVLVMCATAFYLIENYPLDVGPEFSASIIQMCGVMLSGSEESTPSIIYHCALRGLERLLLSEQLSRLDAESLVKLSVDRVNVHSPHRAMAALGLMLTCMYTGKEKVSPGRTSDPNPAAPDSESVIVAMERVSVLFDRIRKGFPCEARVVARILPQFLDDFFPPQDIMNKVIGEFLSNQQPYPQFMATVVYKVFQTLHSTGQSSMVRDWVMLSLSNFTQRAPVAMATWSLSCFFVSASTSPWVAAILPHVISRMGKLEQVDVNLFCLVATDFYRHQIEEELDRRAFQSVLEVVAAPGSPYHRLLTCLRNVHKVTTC

B1: TAFII130 (coactivator), full length (other, UniProt O00268 139-1085, looked up)
chain: PVPAAAAVAAGPEPAPAGPAKPAGPAALAARAGPGPGPGPGPGPGPGPGKPAGPGAAQTLNGSAALLNSHHAAAPAVSLVNNGPAALLPLPKPAAPGTVIQTPPFVGAAAPPAPAAPSPPAAPAPAAPAAAPPPPPPAPATLARPPGHPAGPPTAAPAVPPPAAAQNGGSAGAAPAPAPAAGGPAGVSGQPGPGAAAAAPAPGVKAESPKRVVQAAPPAAQTLAASGPASTAASMVIGPTMQGALPSPAAVPPPAPGTPTGLPKGAAGAVTQSLSRTPTATTSGIRATLTPTVLAPRLPQPPQNPTNIQNFQLPPGMVLVRSENGQLLMIPQQALAQMQAQAHAQPQTTMAPRPATPTSAPPVQISTVQAPGTPIIARQVTPTTIIKQVSQAQTTVQPSATLQRSPGVQPQLVLGGAAQTASLGTATAVQTGTPQRTVPGATTTSSAATETMENVKKCKNFLSTLIKLASSGKQSTETAANVKELVQNLLDGKIEAEDFTSRLYRELNSSPQPYLVPFLKRSLPALRQLTPDSAAFIQQSQQQPPPPTSQATTALTAVVLSSSVQRTAGKTAATVTSALQPPVLSLTQPTQVGVGKQGQPTPLVIQQPPKPGALIRPPQVTLTQTPMVALRQPHNRIMLTTPQQIQLNPLQPVPVVKPAVLPGTKALSAVSAQAAAAQKNKLKEPGGGSFRDDDDINDVASMAGVNLSEESARILATNSELVGTLTRSCKDETFLLQAPLQRRILEIGKKHGITELHPDVVSYVSHATQQRLQNLVEKISETAQQKNFSYKDDDRYEQASDVRAQLKFFEQLDQIEKQRKDEQEREILMRAAKSRSRQEDPEQLRLKQKAKEMQQQELAQMRQRDANLTALAAIGPRKKRKVDCPGPGSGAEGSGPGSVVPGSSGVGTPRQFTRQRITRVNLRDLIFCLENERETSHSLLLYKAFLK
notes: domain: full-length; in striatal neurons overexpressed
**Q.** Does B1 bind?
**A.** Result: binds
